Data taken from article PMC5648786, “Characterization of a dual function macrocyclase enables design and use of efficient macrocyclization substrates” (Nature Communications, 2017).
Changes are numbered by the printed parent chain. Several values for one entry are separate records, joined by “and”; a condition that tells them apart may be missing. Equal values may be shown once. No end group written: not given here.

How the values were obtained:
[1] = test system: CC[C@H](C)[C@H](NC(=O)CNC(=O)[C@H](Cc1c[nH]c2ccccc12)NC(=O)[C@@H](NC(=O)[C@@H]1CCCN1C(=O)[C@H](CC(C)C)NC(=O)[C@H](CCCNC(=N)N)NC(=O)[C@@H](NC(=O)[C@H](C)NC(=O)[C@H](CC(N)=O)NC(=O)[C@@H](NC(=O)[C@H](CC(=O)O)NC(=O)[C@H](Cc1ccccc1)NC(=O)[C@@H](N)CCSC)[C@@H](C)O)[C@@H](C)O)[C@@H](C)CC)C(=O)NCC(=O)N[C@@H](CS)C(=O)N[C@@H](CC(N)=O)C(=O)N1CCC[C@H]1C(=O)N[C@@H](Cc1c[nH]c2ccccc12)C(=O)N[C@H](C(=O)N[C@@H](C)C(=O)N[C@@H](CCC(=O)O)C(=O)N[C@@H](Cc1c[nH]cn1)C(=O)N[C@H](C(=O)N[C@@H](CC(=O)O)C(=O)N[C@@H](CCC(N)=O)C(=O)N[C@H](C(=O)N[C@@H](CC(C)C)C(=O)N[C@@H](C)C(=O)N[C@@H](CO)C(=O)NCC(=O)N[C@@H](CC(N)=O)C(=O)N[C@@H](CC(=O)O)C(=O)N[C@H](C(=O)N[C@@H](CS)C(=O)O)[C@@H](C)CC)[C@@H](C)O)C(C)C)[C@@H](C)O; test: purified protein, by the assay type; conditions: pH 8.0
Protocol: (§1) Comparison between distinct substrates was performed in 50 mM Tris pH 8.0, 50 mM NaCl, 10 mM DTT with varying concentrations of substrates at room temperature. All reactions were performed in duplicates. Reactions were started by adding GmPOPB (50 nM for GmAMA1_C6S, 1 μM for the 13mer and 14mer, and 20 nM for other substrates) to the assay mixture containing buffer and peptide. Reactions were quenched at several time points by adding 50 μL reaction mixture to 20 μL 6% TFA. Reactants were separated from products for quantification by injecting 50 μL of each quenched time point mix onto a ZORBAX SB-C18, 5 µm, 9.4 × 50 mm (Agilent) column connected to an Agilent LC-MS (G6130B Single Quad, Agilent Technologies). Reactants were separated from products using a gradient from H2O containing 0.1% TFA or 0.1% formic acid and 5% acetonitrile to 50% acetonitrile, at 1.5 ml/min for 8 min. […] The sum of product+substrate was assumed equal to the total initial amount of substrate, product converted from % to concentration. This value was divided by concentration of enzyme present to yield v/E t (min^−1). […] For progress curves with the 35mer substrate, measurements were triplicate and quantification relied on ion counts from mass spectrometry. […] Authentic cyclic peptide was quantified by UV absorbance. […] Kinetic data were fitted to a Michaelis–Menten equation using GraphPad Prism, and values reported are average and standard error of the mean.

[2] = test system: CC[C@H](C)[C@H](N)C(=O)N[C@@H](Cc1c[nH]c2ccccc12)C(=O)NCC(=O)N[C@H](C(=O)NCC(=O)N[C@@H](CS)C(=O)N[C@@H](CC(N)=O)C(=O)N1CCC[C@H]1C(=O)N[C@@H](Cc1c[nH]c2ccccc12)C(=O)N[C@H](C(=O)N[C@@H](C)C(=O)N[C@@H](CCC(=O)O)C(=O)N[C@@H](Cc1c[nH]cn1)C(=O)N[C@H](C(=O)O)C(C)C)[C@@H](C)O)[C@@H](C)CC; test: purified protein, by the assay type; conditions: pH 8.0
Protocol: as §1

[3] = test system: CC[C@H](C)[C@H](N)C(=O)N[C@@H](Cc1c[nH]c2ccccc12)C(=O)NCC(=O)N[C@H](C(=O)NCC(=O)N[C@@H](CS)C(=O)N[C@@H](CC(N)=O)C(=O)N1CCC[C@H]1C(=O)N[C@@H](Cc1c[nH]c2ccccc12)C(=O)N[C@H](C(=O)N[C@@H](C)C(=O)N[C@@H](CCC(=O)O)C(=O)N[C@@H](Cc1c[nH]cn1)C(=O)O)[C@@H](C)O)[C@@H](C)CC; test: purified protein, by the assay type; conditions: pH 8.0
Protocol: as §1

[4] = Peptide solubility when preparing ITC ligand solutions; format: physicochemical; conditions: peptide ligand solution for ITC
Protocol: Supplementary Table 3 Thermodynamic parameters obtained by ITC.
Peptide Sequence Kd (μM) ΔG ΔH -TΔS N
(kcal mol-1) (kcal mol-1) (kcal mol-1) measurements
9mer IW GIGCNPW ND ND ND ND
ND – peptide solubility was lower than 300 μM and measurements could not be
Errors reported are standard error of the mean using the replicates indicated in the
table and the fitted values using Malvern data analysis software.

GmPOPB [5] = target: T1, GmPOPB (Galerina marginata, UniProt H2E7Q8); conditions: macrocyclization; 50 mM Tris pH 8.0, 50 mM NaCl, 10 mM DTT, room temperature; GmPOPB 1 μM for 13mer and 14mer, 50 nM for C6S, 20 nM others; duplicates, fit ± SEM
Protocol: as §1

GmPOPB [6] = target: T1, GmPOPB; test: Peptide products formed after 1 h and 16 h reaction of truncated substrates with GmPOPB; format: biochemical; design: His-tag (TEV-cleavable) (cleaved yes); made in house; host or cells: E. coli BL21(DE3); conditions: 1 μM GmPOPB, 200 μM peptide substrate, performed twice
Protocol: The peptides are colored as Fig. 1c with N-terminus at top. Error bars are standard error of the mean from the average of at least two independent measurements (Supplementary Table 3). c Michaelis–Menten curves show both the 13mer and 14mer are substrates for the enzyme. Fitted values for K d, K m, and k cat are shown in Supplementary Tables 2 and 3. Error bars are standard error of the mean from duplicate measurements. d Cyclic peptide produced after 1 h reaction with 1 μM GmPOPB and 200 μM of various peptide substrates. e Peptide produced after 16 h of reaction with 1 μM GmPOPB and 200 μM of various peptide substrates. Peptide sequences are colored as Fig. 1b and detailed in Supplementary Fig. 1
Comparison between distinct substrates was performed in 50 mM Tris pH 8.0, 50 mM NaCl, 10 mM DTT with varying concentrations of substrates at room temperature. All reactions were performed in duplicates. […] Reactants were separated from products for quantification by injecting 50 μL of each quenched time point mix onto a ZORBAX SB-C18, 5 µm, 9.4 × 50 mm (Agilent) column connected to an Agilent LC-MS (G6130B Single Quad, Agilent Technologies). […] For progress curves with the 35mer substrate, measurements were triplicate and quantification relied on ion counts from mass spectrometry. […] Authentic cyclic peptide was quantified by UV absorbance. […]

[7] = target: T2, GmPOPB-S577A (inactive mutant) (Galerina marginata, UniProt H2E7Q8, S577A); test: Isothermal titration calorimetry, peptide binding to inactive mutant GmPOPB_S577A; conditions: ITC, 20 °C
T2 construct: His-tag (TEV-cleavable) (cleaved yes); made in house; host or cells: E. coli BL21(DE3)
T2 sequence (H2E7Q8 1-730 S577A): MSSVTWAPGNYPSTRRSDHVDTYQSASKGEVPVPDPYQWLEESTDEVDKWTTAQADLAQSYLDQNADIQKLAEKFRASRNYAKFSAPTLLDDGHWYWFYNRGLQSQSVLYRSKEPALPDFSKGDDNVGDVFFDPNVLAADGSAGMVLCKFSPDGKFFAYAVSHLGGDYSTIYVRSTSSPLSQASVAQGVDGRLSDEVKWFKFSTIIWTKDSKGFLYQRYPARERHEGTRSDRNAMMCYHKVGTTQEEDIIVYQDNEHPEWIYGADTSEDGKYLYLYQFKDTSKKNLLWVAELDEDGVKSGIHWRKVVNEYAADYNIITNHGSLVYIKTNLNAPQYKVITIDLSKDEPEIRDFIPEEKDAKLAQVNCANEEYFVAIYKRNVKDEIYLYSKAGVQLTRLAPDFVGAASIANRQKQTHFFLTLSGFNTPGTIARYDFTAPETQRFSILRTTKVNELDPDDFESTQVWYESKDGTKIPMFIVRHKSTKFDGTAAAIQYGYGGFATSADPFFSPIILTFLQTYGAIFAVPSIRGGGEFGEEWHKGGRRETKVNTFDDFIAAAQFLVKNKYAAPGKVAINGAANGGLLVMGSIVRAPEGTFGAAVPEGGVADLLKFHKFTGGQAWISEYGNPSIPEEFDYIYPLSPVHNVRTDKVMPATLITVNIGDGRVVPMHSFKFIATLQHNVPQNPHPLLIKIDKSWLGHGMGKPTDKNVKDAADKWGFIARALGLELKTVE

GmPOPB-S577A [8] = target: T3, GmPOPB-S577A (Galerina marginata, UniProt H2E7Q8, S577A); test: ITC; conditions: both partners purified
T3 sequence: T2 sequence (H2E7Q8 1-730 S577A)

GmPOPB-H698A = target: T4, GmPOPB-H698A (Galerina marginata, UniProt H2E7Q8 1-730, H698A); test: crystal structure; co-crystallization of 100 mg/ml protein with two-fold molar excess of peptide, sitting drop, 20 °C, 12.5 mM hexammine cobalt chloride as additive; conditions: both partners purified
T4 sequence: T2 sequence (H2E7Q8 1-730 S577A) with A577S, H698A

GmPOPB-D661A = target: T5, GmPOPB-D661A (Galerina marginata, UniProt H2E7Q8 1-730, D661A); test: crystal structure; conditions: both partners purified
T5 sequence: T2 sequence (H2E7Q8 1-730 S577A) with A577S, D661A

GmPOPB-S577A [9] = target: T3, GmPOPB-S577A; test: crystal structure; conditions: both partners purified

Q: For GmPOPB (Galerina marginata CBS 339.88), which Km [1] is on record?
A: 23 ± 11 µM

Q: What about the kcat [1] of the same molecule?
A: 0.0533 ± 0.0067 s⁻¹

Q: And the kcat/Km [1]?
A: 2330 ± 1200 M⁻¹ s⁻¹

Q: And the Km [2]?
A: 380 µM

Q: What about the kcat [2] of the same molecule?
A: 0.00967 s⁻¹

Q: What about the kcat/Km [2] of the same molecule?
A: 16.7 ± 1.7 M⁻¹ s⁻¹

Q: What about the Km [3] of the same molecule?
A: 24.4 ± 5.2 µM and 25 µM

Q: And the kcat [3]?
A: 0.00817 ± 0.0005 s⁻¹ and 0.00817 s⁻¹

Q: And the kcat/Km [3]?
A: 333 ± 67 M⁻¹ s⁻¹

Q: With IWGIGCNPW [9mer] as the molecule, how does the solubility ([4]; aqueous buffer, Tris pH 8.0 buffer with DTT) read?
A: < 300 µM

Q: And the “Peptide solubility” value [4]?
A: not sufficiently soluble for analysis

Q: With IWGIGCNPWTAEHV [14mer] as the molecule, how does the kcat (GmPOPB [5]) read?
A: 0.00967 ± 0.00167 s⁻¹

Q: What about the “Linear product (hydrolysis instead of macrocyclization) after 16 h of reaction” value (GmPOPB [6]) of the same molecule?
A: less linear product

Q: And the “-TΔS” value ([7]; GmPOPB_S577A, average ± SEM)?
A: -5.8 ± 0.2 kcal/mol

Q: And the ΔG ([7]; GmPOPB_S577A, average ± SEM)?
A: -6.7 ± 0.1 kcal/mol

Q: What about the ΔH ([7]; GmPOPB_S577A, average ± SEM) of the same molecule?
A: -0.9 ± 0.2 kcal/mol

Q: What about the Kd ([7]; peptide titrated into GmPOPB_S577A, 50 mM Tris pH 8.0, 50 mM NaCl, 10 mM DTT, single-site model, n fixed at 1.0, average ± SEM of at least 2 measurements) of the same molecule?
A: 9.5 ± 1.1 µM

B1: 35mer substrate (amatoxin peptide precursor, full-length substrate) (peptide)
peptide: MFDTNATRLPIWGIGCNPWTAEHVDQTLASGNDIC
notes: also called 35mer peptide
Q: With B1 as the molecule, how does the Kd (GmPOPB-S577A [8]) read?
A: 0.12 µM

Q: Does B1 bind (GmPOPB-H698A)?
A: binds

B2: truncated recognition sequence TLASGNDIC (9 residues) (peptide)
peptide: TLASGNDIC
Q: With B2 as the molecule, how does the Kd (GmPOPB-S577A [8]) read?
A: 121 µM

B3: truncated recognition sequence VDQTLASGNDIC (12 residues) (peptide)
peptide: VDQTLASGNDIC
Q: For B3, which Kd (GmPOPB-S577A [8]) is on record?
A: 5 µM

B4: 25mer substrate (core, linker and recognition tail) (peptide)
peptide: IWGIGCNPWTAEHVDQTLASGNDIC
notes: also called 25mer peptide
Q: Does B4 bind (GmPOPB-D661A)?
A: binds

Q: Does B4 bind (GmPOPB-S577A [9])?
A: binds
